Patent US20020031818A1, “Modification of Mdm2 activity” (priority 2000, published 2002)

Test system: p53 transcriptional activity
Test: p21-luc luciferase reporter assay in EJ cells
Assay type: cell-based, mouse
Details: EJ cells transfected with p53, p19ARF and p21 promoter luciferase construct
Excerpt: FIG. 14A-14E. A. In vitro ubiquitination of Mdm2 is inhibited by p19^ARF. GST-Mdm2 was subjected to an in vitro ubiquitination reaction using purified forms of E1, E2 and Ub-HA in the presence of ATP. Addition of bacculovirus-purified p19^ARF at the indicated concentrations blocked Mdm2 ubiquitination. Glutathione bead-coupled GST-Mdm2 in its ubiquitinated or non-ubiquitinated forms was washed and analyzed on immunoblots using antibodies to HA (upper panel). Middle panel depicts the level of Mdm2 expression and the lower panel, the level of p19^ARF added to the reaction. B. p19^ARF expression increases Mdm2 self-ubiquitination in EJ cells. EJ cells were transfected with the indicated plasmids. Cells were harvested 36 h later and proteins ([…]) were immunoprecipitated using Mdm2 antibodies (2A10). […] The level of p53 immunoprecipitated was monitored in immunoblots using polyclonal antibodies to p53 (middle). […]
Non-denaturing immunoprecipitation and luciferase assay p53/Mdm2 double null cells (Fuch et al., Oncogene 17:2543-2547, 1998), EJ, NIH3T3 mouse fibroblasts and TIG human fibroblasts were maintained in DMEM (Gibco) supplemented with 10% heat-inactivated fetal bovine serum and antibiotics in 5% CO2 Transfections were performed by lipofection (LipofectaminPlus, GIBCO). […] Luciferase activity was determined using the Promega luciferase assay system (Promega, Madison, Wis.). […]

B1: p19^ARF: Mdm2-regulating protein; in vitro translated, bacculovirus-expressed or transfected (protein)
chain: MGRRFLVTVRIQRAGRPLQERVFLVKFVRSRRPRTASCALAFVNMLLRLERILRRGPHRNPGPGDDDGQRSRSSSSAQLRCRFELRGPHYLLPPGARRSAGRLPGHAGGAARVRGSAGCARCLGSPAARLGPRAGTSRHRAIFAFRWVLFVFRWVVFVYRWERRPDRRA
p53 transcriptional activity (p21-luc): corresponding increase
